Measured values from patent US20220356255A1 (CENTESSA PHARMACEUTICALS UK, published 2022).
One block for each binder: values may come before it.

Columns and labels:
[1] = target: T1, human PD-L1 on cells (human, UniProt Q9NZQ7 19-290); assay: flow cytometry on MDA-MB-231 cells, Krebs buffer; ratio of EC50 values
T1 construct: Endogenous on MDA-MB-231 cells or transfected into HEK293FF cells (Sino Biological plasmid); the assay field says which; also called native PD-L1 on MDA-MB-231 cells; PD-L1 expressing MDA-MB-231 cells
T1 sequence (Q9NZQ7 19-290 limits assumed): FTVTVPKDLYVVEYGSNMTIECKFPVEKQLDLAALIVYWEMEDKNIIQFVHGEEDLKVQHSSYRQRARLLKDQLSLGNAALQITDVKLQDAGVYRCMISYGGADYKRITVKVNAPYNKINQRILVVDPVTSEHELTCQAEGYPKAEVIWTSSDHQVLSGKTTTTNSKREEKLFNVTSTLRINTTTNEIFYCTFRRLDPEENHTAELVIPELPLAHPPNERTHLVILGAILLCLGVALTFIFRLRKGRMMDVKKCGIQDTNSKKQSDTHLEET
Description: (§1) Anti-PD-L1 affinity matured Fabs were tested for their ability to bind to native PD-L1 in a cell line, (MDA-MB-231 cells) in a buffer resembling the tumor microenvironment (Krebs-lactate).

[2] = target: T2, human PD-L1-Fc protein (human, UniProt Q9NZQ7 19-239); assay: BIAcore off rate, unpurified periplasmic extract Fab on PD-L1
T2 construct: Bought from R&D Systems; also called immobilised PD-L1-Fc; not shown: Fc part of the bought fusion protein, not described
T2 sequence (Q9NZQ7 19-239 limits assumed): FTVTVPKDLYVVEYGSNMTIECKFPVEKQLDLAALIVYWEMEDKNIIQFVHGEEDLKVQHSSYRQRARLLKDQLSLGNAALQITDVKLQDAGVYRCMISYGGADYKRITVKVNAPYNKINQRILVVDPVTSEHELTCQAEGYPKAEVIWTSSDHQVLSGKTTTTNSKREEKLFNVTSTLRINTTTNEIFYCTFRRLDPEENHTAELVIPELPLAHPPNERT

[3] = target: T1, human PD-L1 on cells; assay: flow cytometry on MDA-MB-231 cells, Krebs buffer, pH 7.4
Description: as §1

[4] = target: T3, biotinylated human PD-L1 (human, UniProt Q9NZQ7 19-239, limits assumed, biotinylated (sites not given)); assay: competition ELISA, Fab with biotinylated PD-L1 on coated PD-1-Fc, pH 6
T3 construct: Bought from R&D Systems; also called biotinylated-PD-L1; human PD-L1 biotin
T3 sequence (Q9NZQ7 19-239 limits assumed): as above

[5] = target: T3, biotinylated human PD-L1; assay: competition ELISA, Fab with biotinylated PD-L1 on coated PD-1-Fc
[6] = target: T1, human PD-L1 on cells; assay: flow cytometry on MDA-MB-231 cells, Krebs buffer, pH 6
Description: as §1

[7] = target: T2, human PD-L1-Fc protein; assay: ELISA, Fab on coated human PD-L1-Fc, pH 7.4; pH 7.4
[8] = target: T3, biotinylated human PD-L1; assay: competition ELISA, Fab with biotinylated PD-L1 on coated PD-1-Fc, pH 6; remark: listed apart in the source
[9] = target: T2, human PD-L1-Fc protein; assay: ELISA, Fab on coated human PD-L1-Fc; ratio from extrapolating an OD of 0.3 at pH 6 versus pH 7.4
[10] = target: T2, human PD-L1-Fc protein; assay: BIAcore off rate, unpurified periplasmic extract Fab on PD-L1, pH 7.4
[11] = target: T3, biotinylated human PD-L1; assay: competition ELISA, Fab with biotinylated PD-L1 on coated PD-1-Fc; ratio of IC50 values
[12] = target: T2, human PD-L1-Fc protein; assay: ELISA, purified Fab on coated human PD-L1-Fc, pH 6 (FIG. 4)
[13] = target: T3, biotinylated human PD-L1; assay: competition ELISA, Fab with biotinylated PD-L1 on coated PD-1-Fc, pH 7.4
[14] = target: T2, human PD-L1-Fc protein; assay: ELISA, Fab on coated human PD-L1-Fc, pH 6
[15] = target: T2, human PD-L1-Fc protein; assay: BIAcore off rate, unpurified periplasmic extract Fab on PD-L1, pH 6
[16] = target: T3, biotinylated human PD-L1; assay: competition ELISA, Fab with biotinylated PD-L1 on coated PD-1-Fc, pH 6.5
[17] = target: T1, human PD-L1 on cells; assay: flow cytometry on MDA-MB-231 cells, Krebs buffer, pH 6.5
Description: as §1

[18] = target: T1, human PD-L1 on cells; assay: flow cytometry on MDA-MB-231 cells, Krebs buffer with lactate, pH printed as 6.6 (FIG. 3); pH printed as 6.6 (experiment described at pH 6.5); pH 6.6
Description: (§2) In order to mimic an acidic tumor environment milieu with tumor cells expressing PD-L1 (The metabolism of tumors in the body, Warburg et al. J Gen Physiol. 1927; 8:519-30) the following buffers were utilised: Krebs ringer bicarbonate buffer (KRB, Amsbio catalog number KRB-1000) with 1 mM lactic acid (Sigma catalog number 252476-50DG) for pH 7.4; KRB plus 15 mM lactic acid for pH 6.5 and KRB plus 20 mM lactic acid for pH 6.0). 3 fold dilutions (100 nM to 0.0005 nM; 0) of the Fabs or IgG were prepared in the respective pH buffers and incubated with 0.60E05 MDA-MB-231 cells for 60 minutes at 4° C. The cells were then washed 3× with the respective pH buffers, at 300 g for 3 min. The cells were then incubated with 50 μl of anti-human IgG (Fab specific)-FITC (Sigma, catalog number F5512-1ML) at 1:100 dilution in the respective pH buffers. Binding of the IgG or Fab to PD-L1 expressing cells was measured by FACS (Attune Nxt) and a total of 10.000 cells were acquired per sample.

[19] = target: T3, biotinylated human PD-L1; assay: competition ELISA, mAb with biotinylated PD-L1 on coated B7-1-Fc (CD80) (FIG. 1B); PD-L1 binding to CD80 (FIG. 1B)
[20] = target: T3, biotinylated human PD-L1; assay: competition ELISA, mAb with biotinylated PD-L1 on coated PD-1-Fc (FIG. 1A); PD-L1 binding to PD-1 (FIG. 1A)
[21] = target: T2, human PD-L1-Fc protein; assay: SPR BIAcore, mAb over immobilised PD-L1-Fc
Description: (§3) To assess the affinity of selected IgG formatted purified clones to human PD-L1 at pH6.0 and at pH7.4, human PD-L1-Fc protein was coated by amine coupling. Surface plasmon resonance (SPR) (BIAcore 3000, GE Healthcare) was used to determine the binding kinetics of selected IgG formatted purified clones to human PD-L1 at pH6.0 and at pH 7.4. Approximately 3000 RU of human PD-L1 Fc (R&D Systems) at 50 μg/ml in Acetate buffer pH 5.0 was immobilized onto a CM5 chip using the standard amine coupling procedure. QC of the PD-L1 immobilization was performed using an anti-PD-L1 commercial antibody (R&D systems cat. no. AF156) at 2.0 μg/ml. 1×HBS-EP pH 7.4 or HBS-EP pH 7.0 or HBS-EP […] citrate buffer pH 6.5 or HBS-EP […] citrate buffer pH 6.0, were utilized as running buffers during binding kinetic measurements. […] Fitting 1:1 binding with mass transfer was applied to the curves using the BIAevaluation software to calculate the kinetic constants of the antibody-antigen interactions including association rate (ka), dissociation rate (kd) and affinity (KD).

[22] = target: T2, human PD-L1-Fc protein; assay: SPR BIAcore, mAb over immobilised PD-L1-Fc, pH 7.0
Description: as §3

[23] = target: T2, human PD-L1-Fc protein; assay: SPR BIAcore, mAb over immobilised PD-L1-Fc, pH 6.0
[24] = target: T2, human PD-L1-Fc protein; assay: SPR BIAcore, mAb over immobilised PD-L1-Fc, pH 6.5
Description: as §3

[25] = target: T2, human PD-L1-Fc protein; assay: SPR BIAcore, mAb over immobilised PD-L1-Fc, pH 7.4
Description: as §3

[26] = target: T2, human PD-L1-Fc protein; assay: SPR BIAcore off rate, mAb over immobilised PD-L1-Fc (FIG. 2)
Description: as §3

[27] = target: T1, human PD-L1 on cells; assay: flow cytometry on MDA-MB-231 cells, Krebs buffer with lactate, pH 6.0 (FIG. 3); pH 6.0
Description: as §2

[28] = target: T1, human PD-L1 on cells; assay: flow cytometry on MDA-MB-231 cells, Krebs buffer with lactate, pH 7.4 (FIG. 3); pH 7.4
Description: as §2

Ratio pH 6:7.4 [1]: 11 | Ratio pH 6 vs 7.4 [2]: 20 | EC50 [3]: 16 nM | fold less (IC50) than the control Fab 2.7A04OPT at pH 6 [4]: ~3 fold | fold less inhibitory activity at pH 6.5 than at pH 6 [5]: ~3 fold | EC50 [6]: 1.45 nM | EC50 [7]: > 10 nM | IC50 [8]: 13.1 nM | Ratio pH 6:7.4 [9]: 39 | koff [10]: 0.00345 s⁻¹ | Ratio pH 6:7.4 [11]: > 7.63 | concentration at saturation of binding [12]: 4 nM | IC50 [13]: > 100 nM | EC50 [14]: 0.11 nM | koff [15]: 0.000699 s⁻¹ | IC50 [16]: 40 nM | EC50 [17]: 2.92 nM
B1: Fab 8D06 (Fab, V domains shown)
VH: QVQLVQSGGGVVQPGRSLRLSCAASGFTFSSYGMYWVRQAPGKGLEWVAVISYDGSNKYYADSVKGRFTISRDNSKNTLNLQMNSLRAEDTAVYYCAKGALTHWGVVIGDGMDVWGQGTTVTVSS
VL: NFMLTQPHSVSESPGKTVTISCVLSPRTHAGHYYRWYQQRPGSSPTTVIYEDDQRPSGVPDRFSGSIDSSSNSASLTISGLKTEDEADYYCQSFDSTNPWVFGGGTKLTVL
notes: Purified Fab prepared from IgG with the Pierce kit; also called 8D06 Fab

EC50 [18]: 6.1 nM | IC50 [19]: 1.2 nM | IC50 [20]: 0.4 nM | fold higher affinity at pH 6 than at pH 7.4 [21]: ~20 fold | Kd [22]: 0.57 nM | koff [22]: 0.00711 s⁻¹ | kon [22]: 1.25e+07 M⁻¹ s⁻¹ | Kd [23]: 0.13 nM | koff [23]: 0.000865 s⁻¹ | kon [23]: 6.77e+06 M⁻¹ s⁻¹ | Kd [24]: 0.18 nM | koff [24]: 0.00129 s⁻¹ | kon [24]: 7.36e+06 M⁻¹ s⁻¹ | Kd [25]: 2.6 nM | koff [25]: 0.0271 s⁻¹ | kon [25]: 1.05e+07 M⁻¹ s⁻¹ | fold better off rate at pH 6.0 than at pH 7.4 [26]: ~5 fold | EC50 [27]: 2.4 nM | EC50 [28]: 16.3 nM
B2: mAb 2A09 (antibody, V domains shown)
VH: QVQLVQSGGGVVQPGRSLRLSCAASGFTFSSYGMYWVRQAPGKGLEWVAVISYDGSNKYYADSVKGRFTISRDNSKNTLNLQMNSLRAEDTAVYYCAKGALTHWGVVIGDGMDVWGQGTTVTVSS
VL: NFMLTQPHSVSESPGKTVTISCTRSSGSIASNYVQWYQQRPGSSPTTVIYEDDQRPSGVPDRFSGSIDSSSNSASLTISGLKTEDEADYYCQSFDSTNPWVFGGGTKLTVL
notes: Fully human; also called 2A09_WT; 2A09 WT
